B1: Divalent-cation tolerance protein CutA, P69488 (parent)
chain: MLDEKSSNTASVVVLCTAPDEATAQDLAAKVLAEKLAACATLIPGATSLYYWEGKLEQEYEVQMILKTTVSHQQALLECLKSHHPYQTPELLVLPVTHGDTDYLSWLNASLR

In the data set the parent is B1. The settings on record: Escherichia coli (strain K12), pH 9, Thermal, DSC, Glycine 50mM, reversible: yes, whole UniProt chain shown.

Broadly, the Tm is the temperature at which the thermal transition is half complete. Regarding MLDEKSSNTASVVVLCTAPDEATAQDLAAKVLAEKLAACATLIPGATSLYYWEGKLEQEYEVQMILKTTVSHQQALLECLKSHHPYKRPELLVLPVTHGDTDYLSWLNASLR, where the note is “structure 1NAQ”, the Tm is 122 °C; the “change of melting temperature, mutant - wild type (higher = more stable)” value (from here on “change of melting temperature, mutant”) was found to be 36.8 °C; the “unfolding enthalpy (calorimetric)” value is 378 kcal/mol.

As to MLDEKSSNTASVVVLCTAPDEATAQDLAAKVLAEKLAACATLIPGATSLYYWEGKLEQEYEVQMILKTTVSHQQALLECLKSHHPYKTPELLVLPVTHGDTDYLSWLNASLR, for the setting “structure 1NAQ”, the melting temperature (Tm) is 117 °C; the “change of melting temperature, mutant” value stood at 31.2 °C; the “unfolding enthalpy (calorimetric)” value was 340 kcal/mol.

In the case of MLDEKSSNTASVVVLCTAPDEATAQDLAAKVLAEKLAACATLIPGATKLYYWEGKLEQEYEVQMILKTTVSKQQALLECLKKHHPYKRPELLVLPVTHGDTDYLSWLNASLR, for the setting “structure 1NAQ”, the Tm came out at 137 °C; the “change of melting temperature, mutant” value came out at 51.2 °C; the “unfolding enthalpy (calorimetric)” value came to 416 kcal/mol.

As for MLDEKSSNTAVVVVLCTAPDEATAQDLAAKVLAEKLAACATLIPGATSLYYWEGKLEQEYVVQMILKTTVSHQQALLECLKSHHPYQTPELLVLPVTHGDTDYLSWLNASLR, where the note is “structure 1NAQ”, the Tm was 113 °C; the “change of melting temperature, mutant” value amounted to 27.6 °C; the “unfolding enthalpy (calorimetric)” value amounted to 375 kcal/mol.

With MLDEKSSNTASVVVLCTAPDEATAQDLAAKVLAEKLAADATLIPGATSLYYWEGKLEQEYEVQMILKTTVSHQQALLECLKSHHPYQTPELLVLPVTHGDTDYLSWLNASLR, for the setting “structure 4Y65”, the Tm came to 105 °C; the “change of melting temperature, mutant” value amounted to 19.8 °C; the “unfolding enthalpy (calorimetric)” value was found to be 286 kcal/mol.

For MLDEKSSNTASVVVLCTAPDEATAQDLAAKVLAEKLAACATLIPGATSLYYWEGKLEQEYEVQMILKTTVSKQQALLECLKSHHPYQTPELLVLPVTHGDTDYLSWLNASLR, where the note is “structure 1NAQ”, the Tm was 118 °C; the “change of melting temperature, mutant” value came to 32.8 °C; the “unfolding enthalpy (calorimetric)” value came out at 364 kcal/mol.

On to MLDEKSSNTAVVVVLCTAPDEATAQDLAAKVLAEKLAACATLIPGATSLYYWEGKLEQEYEVQMILKTTVSHQQALLECLKSHHPYQTPELLVLPVTHGDTDYLSWLNASLR, for which, for the setting “structure 1NAQ”, the Tm stood at 103 °C; the “change of melting temperature, mutant” value was determined as 17.1 °C; the “unfolding enthalpy (calorimetric)” value worked out at 311 kcal/mol.

As for MLDEKSSNTASVVVLCTAPDEATAQDLAAKVLAEKLAACATLIPGATSLYYWEGKLEQEYVVQMILKTTVSHQQALLECLKSHHPYQTPELLVLPVTHGDTDYLSWLNASLR, for the setting “structure 1NAQ”, the Tm worked out at 101 °C; the “change of melting temperature, mutant” value turned out to be 15.4 °C; the “unfolding enthalpy (calorimetric)” value came to 293 kcal/mol.

With MLDEKSSNTASVVVLCTAPDEATAQDLAAKVLAEKLAACATLIPGATSLYYWEGKLEQEYEVQMILKTTVSHQQALLECLKSHHPYQRPELLVLPVTHGDTDYLSWLNASLR, where the note is “structure 1NAQ”, the Tm was found to be 118 °C; the “change of melting temperature, mutant” value was determined as 32 °C; the “unfolding enthalpy (calorimetric)” value is 359 kcal/mol.

Take MLDEKSSNTASVVVLCTAPDEATAQDLAAKVLAEKLAACATLIPGATSLYYWEGKLEQEYEVQMILKTTVSHQQALLECLKSHHPYQTPELLVLPVTHGDTDYLSWLNARLR: where the note is “structure 1NAQ”, the Tm was found to be 117 °C; the “change of melting temperature, mutant” value was determined as 31.7 °C; the “unfolding enthalpy (calorimetric)” value turned out to be 391 kcal/mol.

As to MLDEKSSNTASVVVLCKAPDEATAQDLAAKVLAEKLAACATLIPGATSLYYWEGKLEQEYEVQMILKTTVSHQQALLECLKSHHPYQTPELLVLPVTHGDTDYLSWLNASLR, where the note is “structure 1NAQ”, the Tm was 107 °C; the “change of melting temperature, mutant” value amounted to 21.6 °C; the “unfolding enthalpy (calorimetric)” value is 314 kcal/mol.

For the variant MLDEKSSNTASVVVLCTAPDEATAQDLAAKVLAEKLAACATLIPGATKLYYWEGKLEQEYEVQMILKTTVSHQQALLECLKSHHPYQTPELLVLPVTHGDTDYLSWLNASLR, under “structure 1NAQ”, the midpoint of thermal melting (Tm) came out at 112 °C; the “change of melting temperature, mutant” value turned out to be 26.6 °C; the “unfolding enthalpy (calorimetric)” value came out at 280 kcal/mol. In addition, under “structure 4Y65”, the Tm turned out to be 118 °C; the “change of melting temperature, mutant” value was determined as 32.7 °C; the “unfolding enthalpy (calorimetric)” value turned out to be 337 kcal/mol.

Regarding MLDEKSSNTASVVVLCTAPDEATAQDLAAKVLAEKLAACATLIPGATSLYYWEGKLEQEYEVQMILKTTVSHQQALLECLKRHHPYQTPELLVLPVTHGDTDYLSWLNASLR, for the setting “structure 1NAQ”, the Tm is 117 °C; the “change of melting temperature, mutant” value amounted to 31.5 °C; the “unfolding enthalpy (calorimetric)” value came out at 346 kcal/mol.

As to MLDEKSSNTASVVVLCTAPDEATAQDLAAKVLAEKLAACATLIPGATSLYYWEGKLEQEYEVQMILKTTVSHQQALLECLKKHHPYQTPELLVLPVTHGDTDYLSWLNASLR, where the note is “structure 1NAQ”, the Tm was 117 °C; the “change of melting temperature, mutant” value worked out at 31.3 °C; the “unfolding enthalpy (calorimetric)” value turned out to be 353 kcal/mol.

The values above are taken from FireProtDB (doi:10.1038/srep15545).
